Measured values published in PMC12985673.
Values joined by “and” are separate entries in the source; they are usually repeats but may differ in a detail not shown here. Equal values may be shown once. Read-outs that look alike come from different tables or passages of the source. Blank lines part the entries; values can stand above or below the substance they belong to.

Legend:
[1] = molecular target: NRXβ1 ECD (amino acids 81 to 311), His-tagged, labelled with Alexa Fluor 488 (mouse) (UniProt P0DI97); test: fluorescence polarisation; 8 nM NRXβ1 ECD–AF488, NL2 or NL2mut titrated 15 nM to 8 μM; 20 mM Hepes pH 7.5, 150 mM NaCl, 1 mM MgCl2, 0.5 mM CaCl2; triplicate; Hill fit with shared slope; apparent
[2] = molecular target: Neurexin β1 ECD (UniProt P58400); details: cited from earlier work
[3] = molecular target: Neurexin β1 (UniProt P58400); details: cited from earlier work
[4] = molecular target: full-length neuroligin 2 (NL2), mouse, without the splice insert at site A (mouse) (UniProt Q69ZK9); test: proteoliposome colocalisation (TIRF microscopy); as a5 at 2x protein: NL2 1:5 and NRXβ1 1:10 protein:lipid (w/w); all detections
[5] = molecular target: full-length neuroligin 2 (NL2), mouse, without the splice insert at site A (mouse) (UniProt Q69ZK9); test: cryo-EM structure; NL2 and NRXβ1 purified separately, mixed at one-to-one molar ratio, ~20 μM (monomer) each, on ice 10 min; only the ECDs resolved; Ca2+ at the interface
[6] = molecular target: full-length neuroligin 2 (NL2), mouse, without the splice insert at site A (mouse) (UniProt Q69ZK9); test: proteoliposome colocalisation (TIRF microscopy); as a5 at 2x protein: NL2 1:5 and NRXβ1 1:10 protein:lipid (w/w); all detections; remark: listed apart in the source
[7] = molecular target: Neurexin β1 (UniProt P58400); details: cited from earlier work; remark: listed apart in the source
[8] = molecular target: Neurexin β1 ECD (UniProt P58400); details: cited from earlier work; remark: listed apart in the source

Chain of full-length neuroligin 2 (NL2), mouse, without the splice insert at site A (mouse) (Q69ZK9 other isoform, or with tags, fused parts or gaps): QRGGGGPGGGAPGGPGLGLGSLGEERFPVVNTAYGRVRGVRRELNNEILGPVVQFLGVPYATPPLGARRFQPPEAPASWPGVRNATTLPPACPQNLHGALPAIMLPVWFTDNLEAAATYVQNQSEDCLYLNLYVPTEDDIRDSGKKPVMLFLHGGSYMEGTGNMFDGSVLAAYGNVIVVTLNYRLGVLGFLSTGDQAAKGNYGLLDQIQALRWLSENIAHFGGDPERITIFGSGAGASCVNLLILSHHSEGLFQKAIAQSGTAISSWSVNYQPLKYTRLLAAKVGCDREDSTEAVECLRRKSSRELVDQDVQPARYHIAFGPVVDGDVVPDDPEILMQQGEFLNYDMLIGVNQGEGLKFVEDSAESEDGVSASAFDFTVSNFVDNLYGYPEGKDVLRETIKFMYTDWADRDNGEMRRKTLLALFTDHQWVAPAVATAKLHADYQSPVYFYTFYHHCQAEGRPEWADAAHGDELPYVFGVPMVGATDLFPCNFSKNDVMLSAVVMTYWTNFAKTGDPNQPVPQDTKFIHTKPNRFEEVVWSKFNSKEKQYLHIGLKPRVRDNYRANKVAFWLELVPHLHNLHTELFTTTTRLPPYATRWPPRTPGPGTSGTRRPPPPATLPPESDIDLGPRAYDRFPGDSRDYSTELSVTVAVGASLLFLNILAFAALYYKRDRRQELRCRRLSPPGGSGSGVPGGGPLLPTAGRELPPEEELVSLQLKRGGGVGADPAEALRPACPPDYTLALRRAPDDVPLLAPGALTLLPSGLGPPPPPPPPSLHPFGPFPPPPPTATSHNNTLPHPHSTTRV
Chain of Neurexin β1 ECD (P58400 51-396): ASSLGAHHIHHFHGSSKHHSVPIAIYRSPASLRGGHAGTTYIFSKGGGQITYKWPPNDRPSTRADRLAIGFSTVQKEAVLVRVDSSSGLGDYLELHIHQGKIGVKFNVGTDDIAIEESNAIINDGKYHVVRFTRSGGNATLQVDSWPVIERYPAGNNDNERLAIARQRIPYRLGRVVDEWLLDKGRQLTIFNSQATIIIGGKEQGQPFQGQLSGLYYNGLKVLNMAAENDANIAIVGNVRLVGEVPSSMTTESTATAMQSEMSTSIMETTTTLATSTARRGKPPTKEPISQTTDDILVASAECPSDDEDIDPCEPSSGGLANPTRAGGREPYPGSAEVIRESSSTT
Chain of Neurexin β1 (P58400 51-396): as above
Chain of Neuroligin 3 (Q9NZ94 38-709): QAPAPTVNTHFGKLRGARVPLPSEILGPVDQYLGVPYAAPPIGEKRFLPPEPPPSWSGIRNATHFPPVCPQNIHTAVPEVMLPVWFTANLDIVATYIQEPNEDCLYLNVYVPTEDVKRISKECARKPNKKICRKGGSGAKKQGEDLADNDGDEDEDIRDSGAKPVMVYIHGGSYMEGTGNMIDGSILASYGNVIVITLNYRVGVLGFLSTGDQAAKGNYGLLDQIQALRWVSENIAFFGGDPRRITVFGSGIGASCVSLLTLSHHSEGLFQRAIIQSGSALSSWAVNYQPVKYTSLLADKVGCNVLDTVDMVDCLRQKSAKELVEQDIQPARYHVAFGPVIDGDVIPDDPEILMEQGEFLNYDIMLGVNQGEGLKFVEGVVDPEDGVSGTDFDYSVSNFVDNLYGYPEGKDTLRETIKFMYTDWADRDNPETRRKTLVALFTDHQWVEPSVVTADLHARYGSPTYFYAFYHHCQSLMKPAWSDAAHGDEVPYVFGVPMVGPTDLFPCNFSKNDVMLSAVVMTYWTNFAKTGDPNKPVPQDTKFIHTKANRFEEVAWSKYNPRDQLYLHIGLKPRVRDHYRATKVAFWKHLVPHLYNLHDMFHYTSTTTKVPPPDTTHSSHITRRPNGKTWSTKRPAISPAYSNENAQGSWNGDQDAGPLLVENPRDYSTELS
Chain of Neuroligin 2 (Q8NFZ4 15-677): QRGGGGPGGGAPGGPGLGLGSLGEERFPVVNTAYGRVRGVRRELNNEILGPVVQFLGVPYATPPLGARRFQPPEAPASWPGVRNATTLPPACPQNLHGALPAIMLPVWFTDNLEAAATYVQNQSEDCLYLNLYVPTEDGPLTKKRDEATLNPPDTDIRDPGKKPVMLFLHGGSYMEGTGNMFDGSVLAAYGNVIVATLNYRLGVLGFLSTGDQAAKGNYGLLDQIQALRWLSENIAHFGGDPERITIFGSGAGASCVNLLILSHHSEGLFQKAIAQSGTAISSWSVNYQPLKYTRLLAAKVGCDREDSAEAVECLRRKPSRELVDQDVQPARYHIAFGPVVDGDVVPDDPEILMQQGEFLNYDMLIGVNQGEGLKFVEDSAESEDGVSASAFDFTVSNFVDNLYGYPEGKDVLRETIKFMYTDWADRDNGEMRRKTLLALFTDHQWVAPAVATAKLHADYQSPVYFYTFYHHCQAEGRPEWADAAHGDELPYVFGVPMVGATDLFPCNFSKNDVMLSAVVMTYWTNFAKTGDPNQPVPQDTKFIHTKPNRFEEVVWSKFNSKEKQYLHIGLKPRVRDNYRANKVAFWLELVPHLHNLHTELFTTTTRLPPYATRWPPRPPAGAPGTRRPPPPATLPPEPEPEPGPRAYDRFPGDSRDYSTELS
Chain of Neuroligin 1 ECD (Q8N2Q7 46-717): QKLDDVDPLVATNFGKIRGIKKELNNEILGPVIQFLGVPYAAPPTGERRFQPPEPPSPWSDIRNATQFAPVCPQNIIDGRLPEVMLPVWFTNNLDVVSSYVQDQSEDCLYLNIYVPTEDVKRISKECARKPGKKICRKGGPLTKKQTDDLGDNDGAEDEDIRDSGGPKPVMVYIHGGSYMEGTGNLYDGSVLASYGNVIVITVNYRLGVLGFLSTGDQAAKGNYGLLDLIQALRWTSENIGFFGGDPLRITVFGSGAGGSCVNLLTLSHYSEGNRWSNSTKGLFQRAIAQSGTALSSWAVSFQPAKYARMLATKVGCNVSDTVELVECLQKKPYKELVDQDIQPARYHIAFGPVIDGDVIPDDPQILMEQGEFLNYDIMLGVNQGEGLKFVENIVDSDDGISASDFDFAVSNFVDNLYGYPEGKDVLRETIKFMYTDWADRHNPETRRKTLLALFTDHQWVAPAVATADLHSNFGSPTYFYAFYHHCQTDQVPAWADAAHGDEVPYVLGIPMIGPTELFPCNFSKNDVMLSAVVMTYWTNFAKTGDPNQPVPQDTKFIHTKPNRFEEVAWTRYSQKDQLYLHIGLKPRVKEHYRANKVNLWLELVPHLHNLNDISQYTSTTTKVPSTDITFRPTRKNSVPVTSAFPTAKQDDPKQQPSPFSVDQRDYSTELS
Chain of full-length neuroligin 2 (NL2), mouse, without the splice insert at site A (Q69ZK9 other isoform, or with tags, fused parts or gaps): as the sequence (Q69ZK9 other isoform, or with tags, fused parts or gaps) above

Kd [1]: 6000 nM
Substance: full-length neuroligin 2 (NL2), mouse, without the splice insert at site A (from UniProt Q69ZK9 15-836) (receptor)

Substance: Neuroligin 1 ECD (from UniProt Q8N2Q7)
Kd [2]: 10 nM

Substance: Neuroligin 2 (from UniProt Q8NFZ4)
Kd [3]: 10000 nM

fraction of vesicles colocalised [4]: 0.6 | stoichiometry N (NRXβ1 per NL2 dimer) [5]: 2 and 1 | fraction of vesicles colocalised [6]: > 0.5
Substance: full-length neurexin β1 (NRXβ1), mouse, without the insert at splice site 4 (from UniProt P0DI97 47-468) (receptor)

fold increase of affinity against wild-type NL2 [1]: 30 fold
Substance: NL2 H279Y G282K mutant (from UniProt Q69ZK9 170-836) (receptor)

Substance: Neuroligin 3 (from UniProt Q9NZ94)
Kd [7]: 1000 nM

Substance: Neuroligin 4 ECD (from UniProt Q8N0W4)
Kd [8]: 100 nM
